# Measured values published in patent publication US20140248254A1, “THE USE OF ACHE AS NUCLEASE” (priority 2011, published 2014).
# B1: Homo AChE (protein)
# chain: EGREDAELLVTVRGGRLRGIRLKTPGGPVSAFLGIPFAEPPMGPRRFLPPEPKQPWSGVVDATTFQSVCYQYVDTLYPGFEGTEMWNPNRELSEDCLYLNVWTPYPRPTSPTPVLVWIYGGGFYSGASSLDVYDGRFLVQAERTVLVSMNYRVGAFGFLALPGSREAPGNVGLLDQRLALQWVQENVAAFGGDPTSVTLFGESAGAASVGMHLLSPPSRGLFHRAVLQSGAPNGPWATVGMGEARRRATQLAHLVGCPPGGTGGNDTELVACLRTRPAQVLVNHEWHVLPQESVFRFSFVPVVDGDFLSDTPEALINAGDFHGLQVLVGVVKDEGSYFLVYGAPGFSKDNESLISRAEFLAGVRVGVPQVSDLAAEAVVLHYTDWLHPEDPARLREALSDVVGDHNVVCPVAQLAGRLAAQGARVYAYVFEHRASTLSWPLWMGVPHGYEIEFIFGIPLDPSRNYTAEEKIFAQRLMRYWANFARTGDPNEPRDPKAPQWPPYTAGAQQYVSLDLR
# B2: Mus AChE (protein)
# chain: EGREDPQLLVRVRGGQLRGIRLKAPGGPVSAFLGIPFAEPPVGSRRFMPPEPKRPWSGVLDATTFQNVCYQYVDTLYPGFEGTEMWNPNRELSEDCLYLNVWTPYPRPASPTPVLIWIYGGGFYSGAASLDVYDGRFLAQVEGAVLVSMNYRVGTFGFLALPGSREAPGNVGLLDQRLALQWVQENIAAFGGDPMSVTLFGESAGAASVGMHILSLPSRSLFHRAVLQSGTPNGPWATVSAGEARRRATLLARLVGCPPGGAGGNDTELIACLRTRPAQDLVDHEWHVLPQESIFRFSFVPVVDGDFLSDTPEALINTGDFQDLQVLVGVVKDEGSYFLVYGVPGFSKDNESLISRAQFLAGVRIGVPQASDLAAEAVVLHYTDWLHPEDPTHLRDAMSAVVGDHNVVCPVAQLAGRLAAQGARVYAYIFEHRASTLTWPLWMGVPHGYEIEFIFGLPLDPSLNYTTEERIFAQRLMKYWTNFARTGDPNDPRDSKSPQWPPYTTAAQQYVSLNLKP
# B3: AChE (protein, listed as Homo Sapiens)
# chain: MRPPQCLLHTPSLASPLLLLLLWLLGGGVGAEGREDAELLVTVRGGRLRGIRLKTPGGPVSAFLGIPFAEPPMGPRRFLPPEPKQPWSGVVDATTFQSVCYQYVDTLYPGFEGTEMWNPNRELSEDCLYLNVWTPYPRPTSPTPVLVWIYGGGFYSGASSLDVYDGRFLVQAERTVLVSMNYRVGAFGFLALPGSREAPGNVGLLDQRLALQWVQENVAAFGGDPTSVTLFGESAGAASVGMHLLSPPSRGLFHRAVLQSGAPNGPWATVGMGEARRRATQLAHLVGCPPGGTGGNDTELVACLRTRPAQVLVNHEWHVLPQESVFRFSFVPVVDGDFLSDTPEALINAGDFHGLQVLVGVVKDEGSYFLVYGAPGFSKDNESLISRAEFLAGVRVGVPQVSDLAAEAVVLHYTDWLHPEDPARLREALSDVVGDHNVVCPVAQLAGRLAAQGARVYAYVFEHRASTLSWPLWMGVPHGYEIEFIFGIPLDPSRNYTAEEKIFAQRLMRYWANFARTGDPNEPRDPKAPQWPPYTAGAQQYVSLDLRPLEVRRGLRAQACAFWNRFLPKLLSATDTLDEAERQWKAEFHRWSSYMVHWKNQFDHYSKQDRCSDL
# What was measured:
# [1] = tested on: plasmid DNA (pEGFP-C1 plasmid); test: In vitro DNase activity: cleavage of plasmid DNA by purified protein; assay type: biochemical; settings: for cleavage of plasmid DNA from supercoil (SC) into Nick and Linear structures: cell free system, 37° C.
# Method: D. The results of 1% agarose electrophoresis before which pEGFP-C1 plasmid DNA and Homo or Mus AChE protein (0, 0.5, 1 and 2 μg) were coincubated for 6 h. EcoR was used to indicate linear DNA. MK indicated molecular weight marker.
# E. the plasmid splitting with increasing time of the incubation of pEGFP-C1 plasmid DNA (150 ng) and Homo or Mus AChE protein (1 μg)). The above experiment was repeated for 3 times.
# G. Commercial AChE isolated from Ee1 was incubated in different doses with plasmid DNA, and two bovine serum albumins (BSA1, BSA2) purchased from different companies were used as control at the same time; after being incubated for 5 h, they were subjected to DNA gel electrophoresis.
# H. Commercial AChE isolated from Ee1 was incubated with plasmid DNA for different durations, and two bovine serum albumins (BSA1, BSA2) purchased from different companies were used as control at the same time. They were then subjected to DNA gel electrophoresis.
# B. The influence of pH value on AChE nuclease activity. Plasmid DNA was incubated with Homo AChE protein under different pH conditions for 3 h.
# Purified plasmid DNA was used as substrate for detection. In the experiment of cleaving of plasmid DNA, 0.15 μg of plasmid DNA with a transfection-grade purity (pEGFP-C1 plasmid, Clotech) was added to 10 μl buffer system containing (5.0 mM Tris-HCl, PH 7.5; 2.5 mM CaCl2; 5.0 mM MgCl2). 1 μg (or an amount indicated in Examples) of purified AChE proteins of human or mouse origin (AChE 1-547AA corresponding to human; AChE1-548AA corresponding to mouse) was further added, and incubated in 37° C. Sampling at 6 h (or timepoints indicated in Examples).
# [2] = tested on: DNA; test: Dissociation constant between protein and DNA (Bio Core T100 assay); assay type: binding
# Description: AChE protein and DNase I presented similar binding curves.
# Meanwhile, the inventors detected environment characteristics in which AChE cleaving DNA. DNase activity of AChE was Mg2+-dependent, while Ca2+ could only play a weak supporting role (FIG. 5a). In a relatively wide pH range of pH 7.0-10.0 (similar to in vivo pH environment during apoptosis), AChE can fully play its function of cleaving DNA (FIG. 5b).
# [3] = tested on: HeLa cell; test: Screening Method 3: DNA breakage (Tunnel) in fixed, permeabilized HeLa cells treated with protein; assay type: cell-based, human; settings: AChE protein 1 μg/μl, 1-2 hr 37° C., compared with BSA group
# Method: HeLa cells were plated in 96-well plate with a 60% density, and after complete adherence, the cells were fixed with 4% PFA for 10 min, and permeabilized with 0.1% sodium citrate +0.1% Triton X-100 for 10 min, for twice. After PBS washing, cells were divided into five groups, as follows:
# AChE protein group: HeLa cell, treated with AChE protein (1 μg/μl) after fixation and permeabilization treatment;
# Cells of each group were incubated for 1-2 hr in 37° C.; Washed twice with PBS, and fixed with 4% PFA for 10 min. Tunnel reagent was added, incubated for 1 hr in 37° C.; and then washed three times with PBS, stained with Hoechest. Observation was performed by fluorescence microscope.
Molecule,cleavage of plasmid DNA from supercoil (SC) into Nick and Linear structures [1],"DNA cleaving activity at pH 5-6 ([1]; Homo AChE protein, pH 5-6, 3 h)","DNA cleaving activity at pH 7-10 ([1]; Homo AChE protein, pH 7-10, 3 h)",affinity for DNA relative to that of DNase I ([2]; from Kd values),Kd ([2]; software analysis of binding curves) [nM],intracellular DNA breakage [3]
B1,effectively cleave plasmid DNA,,,,,
B2,effectively cleave plasmid DNA,,,,,
B3,,reduced slightly,can effectively function to cleave DNA,about 74%,1530,obvious breakage
